Here are results for 18 sequences from the DeepSol protein solubility set.

The nature of this data set: soluble on expression in E. coli; label from the status in PepcDB or PDB records.
On to “MSLKRITMQDIADRLNISKNSVSQALRGKEGVSKETRELVKRVAKEMGYEYPASRAKSRGKPPRQIALIASDRTFSLKFFGEIYLSIEQEALSHGMKLHIQSVNKEQKERLLLPSFIEEKQVDGVIVLSHISTEYIQQIVATGIPTVLVDHHHPNIPADAVLTNNRFGAYVAVQHLLELNHTDIAFVGDVNYSPSYQERYEGYLLALKDYGVKPNEEWMFCQAQEDETVIAGYIRELKRQPTAWFCVNDGLGFFVSTGLQQYGLKVPDDVSVCSFDNGQLSQIATPKITTVDIDLKRYGKRAVELLRWRWDNPNEPFQEVLLSTKLIKRESTAAKPTREGHHHHHH”, for which the “soluble on expression in E. coli” value is “soluble”.

Consider “FVVAFLCNWCSYACADLTGMSRIHYPTNIRVIRTMCSARINPEFVLEALKGGADGVLVAGCRMDECHYIHGNFDAKKRMDVLKEIIKEIGLDPKRLRTLWISAAEGERFSNTITEFVKELEEIGPIGSELKREYTATGLEEVAK”, for which the “soluble on expression in E. coli” value is reported as “not soluble”.

Regarding “MSLYYLFAPQFHPSKTVYVYVDRDDTADSIYNKIRQTGHVNKFTGFQWMAKYRKFDQNIHTGRYAIRPNENVYHVFSRFFRGYQEPMNLTIGSIRTLDRLARSIGKQLMIDSAEIARQLFDSAFQTEMGYTPVTMPCLFIPETYQVYWDMSVDDFFKRMQTEHKRFWNDERLAQATAIGMTPEEVCTLASIVEEETNNNEEKPMVAGLYINRLHTGMPLQADPTIKFALQDFGLRRITNEHLKVNSPYNTYINSGLPPGPIRIPSKKGLDSVLNYTKHNYIYMCAKEDFSGTHNFASNYADHMANARKYWKALNERKEGHHHHHH”, the “soluble on expression in E. coli” value was “not soluble”.

For the sequence “MRGSHHHHHHTDPALRAKPENKLPVLDLISAEMKTVVNTLQPDLPPWPATGTIAEQRQYYTLERRFWNAGAPEMATRAYMVPTKYGQVETRLFCPQPDSPATLFYLHGGGFILGNLDTHDRIMRLLASYSQCTVIGIDYTLSPEARFPQAIEEIVAACCYFHQQAEDYQINMSRIGFAGDSAGAMLALASALWLRDKQIDCGKVAGVLLWYGLYGLRDSVTRRLLGGVWDGLTQQDLQMYEEAYLSNDADRESPYYCLFNNDLTREVPPCFIAGAEFDPLLDDSRLLYQTLAAHQQPCEFKLYPGTLHAFLHYSRMMKTADEALRDGAQFFTAQLGLCGR”, the “soluble on expression in E. coli” value is listed as “soluble”.

Turning to “MGSDKIHHHHHHMRVLPFLLPLIPVLLATTITDLPELVVVTVATENTDGLKRLLESAKAFDINIEVLGLGEKWNGGDTRIEQGGGQKIRILSDWIEKYKDASDTMIMFVDAYDVVFNADSTTILRKFFEHYSEKRLLFGAEPFCWPDQSLAPEYPIVEFGKRFLNSGLFMGYGPEMHKILKLKSVEDKDDDQLYYTMIYLDEKLRKELNMDLDSMSKIFQNLNGVIEDVELQFKEDGTPEAYNAAYNTKPLIVHGNGPSKSHLNYLGNYLGNRWNSQLGCRTCGLEVKESEEVPLIALNLFISKPIPFIEEVLQKIAEFDYPKEKIALYIYNNQPFSIKNIQDFLQKHGKSYYTKRVINGVTEIGDREARNEAIEWNKARNVEFAFLMDGDAYFSEPKVIKDLIQYSKTYDVGIIAPMIGQPGKLFTNFWGAIAANGYYARSEDYMAIVKGNRVGYWNVPFITSAVLFNKEKLEAMKDAYSYNKNLDPDMSMCKFARDNGHFLYIDNEKYYGFLIVSDEYAETVTEGKWHPEMWQIFENRELWEARYIHPGYHKIMEPEHVVDQACPDVYDFPLMSERFCEELIEEMEGFGRWSDGSNNDKRLAGGYENVPTRDIHMNQVGFERQWLYFMDTYVRPVQEKTFIGYYHQPVESNMMFVVRYKPEEQPSLRPHHDASTFSIDIALNKKGRDYEGGGVRYIRYNCTVPADEVGYAMMFPGRLTHLHEGLATTKGTRYIMVSFINP”, the “soluble on expression in E. coli” value is on record as “not soluble”.

Turning to “MDVSFEFEHYQVRLIKSSDAVTIANYFMRNRHHLAPWEPKRSHAFFTPEGWKQRLLQLVELHKHNLAFYFVVVDKNEHKIIGTVSYSNITRFPFHAGHVGYSLDSEYQGKGIMRRAVNVTIDWMFKAQNLHRIMAAYIPRNEKSAKVLAALGFVKEGEAKKYLYINGAWEDHILTSKINDDWKPE”, the “soluble on expression in E. coli” value is listed as “not soluble”.

Take “GPGSMAALRYLLAPRRALVTPFLRSVTCVSSGGIFSSQRPHTFPVLWHAVRTHSNDSGERSKPLTLHVQLPCGTMRTLTAYEGQTLLDVAMEHGLPIEGACGGSCACSTCHVYLENDEAMELFDEATDEENDMLDMAFFPQSTSRLGCQLTLRQQKHDGLKISLPKATRNMYVDGHTITPHH”: the “soluble on expression in E. coli” value is “not soluble”.

On to “MGSDKIHHHHHHMSRFVVITAAQDFQRKVQSAVRGALHGTVQILPPSVMLGGPQELFGRLSGEPPEVLVLGPGLPGDEALKLATVFDLQYPEISLVLVEDMASEQVINAMRAGIRDIVSPSAEVSELRILLERACLASAGRRRGLVAAAGPERPAGRVIAVMSPKGGVGKTTVATNLAIGLGKIAPMGVVIVDLDVQFGDVATGLQLEPEHTLRDAVGGAAFQDSMVLKAFLTVHPSGIYALCAPNTPGEADHISGEAVSHLLNQMAAEFQYVVVDTTPGLGEHVLATLEQATDAVWVCGMDIPSIRGLHTSFEVLRELQLLPQGRHVVLNFADRRSGLTVQDVEATIGVPVDTVVPRSRAVPFSTNKGVPLLQDSSHDGAARAFAKLVERFDPKRATQPQKKVHRRMVIS”, for which the “soluble on expression in E. coli” value is given as “not soluble”.

Take “MSEVKKTKVHLISGFLGTGKTTALKSLMAQKDPNEKWVIIVNEFGEIGIDGAVLSDNGIPVAEIAGGCLCCTAGPQMGVTVQKMLRDAKPDRLMIEASGLAHAASVIDELKAKPLDSLLEIGAVFTVVDPRQFINPDYAQQALYKDQIGICDVLAASKTDLCTPEQLAEFHDKAAKLFPPKAKVVEVQNAQLDIQWLDIPVVEKSRYRLKALPDNTMGFQSQGFTFPAGRDFNGEKLTNFFNDLPKMTEGLVRAKGVFQVLGTWVWLNWVDGQWGANQVSWRRDSRFELIAKSFDADLIEQKLKDALELEHHHHHH”: the “soluble on expression in E. coli” value is reported as “soluble”.

In the case of “MAHHHHHHMKIVPPNFGYVEERIFRCGAPEPCHYAFLASLKLRTCVLLTESHDEAFVRWLRENNVHTVCPLYDGSRMNGLGDKMGCVGYHTGSMTLSEPVVVDILHVLVDPINYPLLLTCSVGRYRTGIVCGCLRKLQGWSLVSILEEYRRYAQDKGRAENEEFIELFDKDLVNLELKDGRRPTILYPYDV”, the “soluble on expression in E. coli” value is “soluble”.

With “KEVRLSKHFYEDKEIEEIKHKDLAETPFQQQVIDYLYRHIAAQKEKVVEQQLQIKNHEQTITEFVHDIKTPVTAMKLLIDQENDDQRKRALLFEWSRINEMLDKQLYLTRLETHHRDMYFDYISLKRMVIDEIQVTRHISQAKGIGFELDFKDEQKVYTDVKWCRMMIRQVLSNSLKYSDNSTINLSGYNIEGHVVLKIKDYGRGISKRDLPRIFDRGFTSTTDRNDTASSGMGLYLVQSVKEQLGIEVKVDSIVGKGTTFYFIFPQQNEIIERMSKVTRLSF”, the “soluble on expression in E. coli” value is “not soluble”.

With “MTTAVQPSDTTGFGGGPAGSRASDLIQFQEIMSESAESSSSSSQTNVSAANTLPRESNGQNYADDPSHVYTNIREIEELNSRPVPPTPRADAQPRRDLLNGWFEYETDVGRTFFFNKETGKSQWIPPRFIRTPAQVQEFLRATRTNLDTTCSFQGSSTSSSEEQKENKMRESLADDDRKSQLIEDEEVFDEVCDDVDEQSSPVIDLQSRPLPIPFSDSFTDDEDEDDVKPIEGSIASDSDFDEEPVPTSSRKASTASGVMMPHPYAHVSSFQSTFPRAKNEDTDKLASYVIPPDANETSKTPTAIRVRRPSPTNLRSVSFQNKCTVLKNVPMPQVLPTTSSSFDHHPQYHSNTPDRPILMEDSADFTPSSRCEERRGSGDGREPVRTIRCGDLERSENDEPAEKVVKPKKREWITNYMYLTTAHLILYKDQKSAEKHGKHYDAPQGVWDLRGASVTWYQDNRDVQKKKQRKYIQLELCNTKKYLLRGPNDTEAVEWYKSLEEVVAKLPSPGSSNQPMIDVTNGVARNPSYIGSTRPLSHALIPISRSMRRRDDPMSQSAIETVSTSVSTDEPRPSKETIIEKLRRFFRTRPTVESLKEKGIYKPEPVFGSTLSAICQHENSLVPKFIRVITEVIESKGLETDGIYRVSGNLSAVQKIRCQADQDNYKALVSEEDIHVLTGALKLFFRELTDPLFPISLHKEYTSAMQMPNATTRFKKFEELLSRLPNENRETLKMLLRHLNRVASHSSQNRMQQHNLAIVFGPTLFHNGDGAVNLATKNKKAGKKAKPSKKEETQATPVQSNSHLAFSMIMQSQIVQYLLESANKFDILKAPVNIGR”, the “soluble on expression in E. coli” value was “not soluble”.

In the case of “MGGMTGMNNNAIKVVSVLAIGARERIALVEVGQQQILLGITPSTIRTLHVFDEPVVDAGNAGSSDFARKLQSMIGKSWSAPERKDLEHHHHHH”, the “soluble on expression in E. coli” value is listed as “not soluble”.

Consider “MAHHHHHHMPGVLRGKGPTRVFLPQPCNHVGNLKIVWKVKLQIYAVQTNFSRVYGAPSDAQPHVICGTKRISDVHQDIACCRILLNGVIAPPVRLQNQPLVFLTKETGDGVGITHCVECRHVSQHILRLKKNIAVNDDSPLLGAAVTNEIHTKPASSHSSADTQMIGH”, for which the “soluble on expression in E. coli” value is “not soluble”.

On to “MIDLSKTVFYTSIDIGSRYIKGLVLGKRDQEWEALAFSSVKSRGLDEGEIKDAIAFKESVNTLLKELEEQLQKSLRSDFVISFSSVSFEREDTVIERDFGEEKRSITLDILSEMQSEALEKLKENGKTPLHIFSKRYLLDDERIVFNPLDMKASKIAIEYTSIVVPLKVYEMFYNFLQDTVKSPFQLKSSLVSTAEGVLTTPEKDRGVVVVNLGYNFTGLIAYKNGVPIKISYVPVGMKHVIKDVSAVLDTSFEESERLIITHGNAVYNDLKEEEIQYRGLDGNTIKTTTAKKLSVIIHARLREIMSKSKKFFREVEAKIVEEGEIGIPGGVVLTGGGAKIPRINELATEVFKSPVRTGCYANSDRPSIINADEVANDPSFAAAFGNVFAVSENPYEETPVKSENPLKKIFRLFKELME”, for which the “soluble on expression in E. coli” value was “soluble”.

For “MGSDKIHHHHHHMSYRIVVDPKEVVKPISRHIYGHFTEHLGRCIYGGIYEEGSPLSDERGFRKDVLEAVKRIKVPNLRWPGGNFVSNYHWEDGIGPKDQRPVRFDLAWQQEETNRFGTDEFIEYCREIGAEPYISINMGTGTLDEALHWLEYCNGKGNTYYAQLRRKYGHPEPYNVKFWGIGNEMYGEWQVGHMTADEYARAAKEYTKWMKVFDPTIKAIAVGCDDPIWNLRVLQEAGDVIDFISYHFYTGSDDYYETVSTVYLLKERLIGVKKLIDMVDTARKRGVKIALDEWNVWYRVSDNKLEEPYDLKDGIFACGVLVLLQKMSDIVPLANLAQLVNALGAIHTEKDGLILTPVYKAFELIVNHSGEKLVKTHVESETYNIEGVMFINKMPFSVENAPFLDAAASISEDGKKLFIAVVNYRKEDALKVPIRVEGLGQKKATVYTLTGPDVNARNTMENPNVVDITSETITVDTEFEHTFKPFSCSVIEVELE”, the “soluble on expression in E. coli” value was “not soluble”.

With “MKEARKRMVKRAVQEIKDGMNVNLGIGMPTLVANEIPDGVHVMLQSENGLLGIGPYPLEGTEDADLINAGKETITEVTGASYFDSAESFAMIRGGHIDLAILGGMEVSEQGDLANWMIPGKMVKGMGGAMDLVNGAKRIVVIMEHVNKHGESKVKKTCSLPLTGQKVVHRLITDLAVFDFVNGRMTLTELQDGVTIEEVYEKTEADFAVSQSVLNS”, the “soluble on expression in E. coli” value is reported as “soluble”.

Regarding “MVRPPPFEFRPARPPGTRALQLEVITNIIWENAPMADLDALRSRFAHALAGATAPGATAGAGPGSGPDPAPYADNLLARWQEPQRRYHTLAHLTAVLDRVDVLAEHADDVAVVRLAAWFHDAVYQPDRSENEERSARLAERALPEAGVPAAKTAEVARLVRLTVTHAPAGDDRDGQVLCDADLAVLASPPSAYAAYTAAVREEYHFVPNEAFREGRAAILRQLLDLPSLFHTPYGRQEWEATARHNLTGELEMLSLPDTPDVLEHHHHHH”, the “soluble on expression in E. coli” value was “not soluble”.
